Measured values published in patent publication CN106565845A.

How the values were obtained:
[1] = target: human uPAR on SW480 cells (人结肠癌细胞) (human) (UniProt Q03405); assay: flow cytometry on SW480 cells, antibody at 5 μg/ml, FITC goat anti-human IgG
[2] = target: 重组人uPAR蛋白 (recombinant human uPAR protein, uPAR-ECD) (human) (UniProt Q03405); assay: ELISA, plate coated with uPAR-ECD (2 ng/μl), antibody at 0.125 μg/ml, goat anti-human IgG-HRP
[3] = target: 重组人uPAR蛋白 (recombinant human uPAR protein, uPAR-ECD) (human) (UniProt Q03405); assay: ELISA, plate coated with uPAR-ECD (2 ng/μl), antibody at 0.0625 μg/ml, goat anti-human IgG-HRP

平均荧光强度 (MFI) [1]: 3.17 | 阳性率 (percent positive cells) [1]: 99.2% | OD450 [2]: 1.86 OD450 | OD450 [3]: 1.42 OD450
B1: H5L5抗体 (humanized anti-uPAR antibody H5L5) (antibody, human IgG1, kappa, V domains shown)
VH: EVQLVQSGAEVKKPGATVKISCKASGYTFSDFYIHWVRQAPGKGLEWMGWIFHGSDNTEYNEKFRGRVTITADTSTDTGYLELSSLRSEDTAVYYCARWGPHWYFDVWGQGTLVSVSS
VL: MIQMTQSPSSVSASVGDRVTITCRASQDVSYMAWYQQKPGKAPKPWIFEISTLQSGVPSRFSGSGSGTDYSLTINSLQPEDFATYYCQQWNYPFTFGGGTKVEIKR
